Measurements: patent publication US20240117038A1

What was measured:
mouse CX3CR1 (mouse) = mouse CX3CR1 (mouse) (UniProt Q9Z0D9); assay: cell-based or functional assay
human CX3CR1 (human) = human CX3CR1 (human) (UniProt P49238); assay: cell-based or functional assay
Sequence of human CX3CR1 (human) (P49238 whole entry): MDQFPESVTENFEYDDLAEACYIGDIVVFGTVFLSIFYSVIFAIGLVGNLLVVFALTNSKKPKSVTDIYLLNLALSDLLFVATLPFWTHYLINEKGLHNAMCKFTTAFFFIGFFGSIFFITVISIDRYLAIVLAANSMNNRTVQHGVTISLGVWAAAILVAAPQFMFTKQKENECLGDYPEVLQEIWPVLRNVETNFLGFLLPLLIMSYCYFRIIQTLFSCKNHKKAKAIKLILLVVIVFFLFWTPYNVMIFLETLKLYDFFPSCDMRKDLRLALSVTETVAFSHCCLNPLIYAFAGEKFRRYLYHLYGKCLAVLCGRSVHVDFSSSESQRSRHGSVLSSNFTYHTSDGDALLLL

Sequence of mouse CX3CR1 (mouse) (Q9Z0D9 whole entry): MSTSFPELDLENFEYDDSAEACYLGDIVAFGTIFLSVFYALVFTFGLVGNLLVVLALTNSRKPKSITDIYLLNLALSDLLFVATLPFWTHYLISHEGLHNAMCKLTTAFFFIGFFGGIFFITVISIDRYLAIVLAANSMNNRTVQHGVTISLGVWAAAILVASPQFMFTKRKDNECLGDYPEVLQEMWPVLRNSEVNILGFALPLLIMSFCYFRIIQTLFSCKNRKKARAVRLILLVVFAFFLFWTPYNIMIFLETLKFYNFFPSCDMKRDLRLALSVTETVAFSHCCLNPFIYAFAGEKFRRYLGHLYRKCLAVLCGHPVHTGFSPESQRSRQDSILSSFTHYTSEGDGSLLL

- EC50, ERK phosphorylation in CHO K1 mCX3CR1 cells (mouse CX3CR1 (mouse)): 23 nM
- EC50, ERK phosphorylation in CHO K1 huCX3CR1 cells (human CX3CR1 (human)): 73 nM
Substance: mouse CX3CL1 (from UniProt O35188 25-337) (ligand)
